Reference: the supplement of paper PMC9112550, “Optimization of the antimicrobial peptide Bac7 by deep mutational scanning” (BMC Biology, 2022)

Tested on: Escherichia coli TOP10
Assay: shrunken log2 fold change of peptide-encoding DNA abundance (4.5 h post-induction vs induction); higher = less antimicrobial activity (less host growth inhibition)
Details: time post-induction: 4.5 h; library: site-saturation at positions 5, 18, 19, 20
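Also: peptides expressed intracellularly from a pBAD plasmid library in pooled LB shake-flask culture, induced with 0.3% L-arabinose, DNA abundance read by NGS, three biological replicates, DESeq2 with apeglm shrinkage.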

Sequence	shrunken log2 fold change
RRIRSRPPRLPRPRPRPVPQPRP	0.0741
RRIRPRPPRLPRPRPRPHGDPRP	-0.0431
RRIRQRPPRLPRPRPRPSALPRP	-0.0016
RRIRLRPPRLPRPRPRPNANPRP	-0.101
RRIRYRPPRLPRPRPRPEKKPRP	-0.0472
RRIRTRPPRLPRPRPRPLYTPRP	-0.322
RRIRPRPPRLPRPRPRPHSPPRP	-0.0589
RRIRHRPPRLPRPRPRPWRWPRP	0.16
RRIRFRPPRLPRPRPRPAGQPRP	0.171
RRIRCRPPRLPRPRPRPSPHPRP	-0.144
RRIRCRPPRLPRPRPRPEFIPRP	-0.551
RRIRKRPPRLPRPRPRPAPDPRP	0.598
RRIRARPPRLPRPRPRPMRLPRP	1.29
RRIRTRPPRLPRPRPRPQMGPRP	-0.0284
RRIRLRPPRLPRPRPRPIHLPRP	-0.453
RRIRPRPPRLPRPRPRPMMFPRP	-0.213
RRIRRRPPRLPRPRPRPPFTPRP	0.0961
RRIRLRPPRLPRPRPRPPYAPRP	0.296
RRIRFRPPRLPRPRPRPRYVPRP	-0.105
RRIRMRPPRLPRPRPRPWPEPRP	0.735
RRIRTRPPRLPRPRPRPANQPRP	-0.102
RRIRTRPPRLPRPRPRPFPEPRP	-0.41
RRIRYRPPRLPRPRPRPNRHPRP	-0.614
RRIRIRPPRLPRPRPRPHSEPRP	-0.13
RRIRVRPPRLPRPRPRPQYPPRP	-0.101

Sequence	shrunken log2 fold change
RRIRRRPPRLPRPRPRPYDVPRP	-0.0964
RRIRYRPPRLPRPRPRPMPRPRP	0.0558
RRIRKRPPRLPRPRPRPDQLPRP	0.107
RRIRPRPPRLPRPRPRPCRVPRP	-0.309
RRIRCRPPRLPRPRPRPEMGPRP	0.0517
RRIRCRPPRLPRPRPRPKELPRP	-0.000896
RRIRMRPPRLPRPRPRPGFQPRP	0.151
RRIRQRPPRLPRPRPRPRAYPRP	-0.0505
RRIRIRPPRLPRPRPRPEWLPRP	-0.216
RRIRCRPPRLPRPRPRPQCNPRP	-0.5
RRIRTRPPRLPRPRPRPVRRPRP	0.38
RRIRIRPPRLPRPRPRPIAFPRP	-0.0789
RRIRKRPPRLPRPRPRPWYLPRP	0.0253
RRIRCRPPRLPRPRPRPHAPPRP	0.0482
RRIRRRPPRLPRPRPRPGPGPRP	0.598
RRIRRRPPRLPRPRPRPGQCPRP	0.22
RRIRCRPPRLPRPRPRPKIVPRP	-0.29
RRIRSRPPRLPRPRPRPVGKPRP	-0.0806
RRIRWRPPRLPRPRPRPPFFPRP	0.224
RRIRWRPPRLPRPRPRPGKTPRP	0.0109
RRIRNRPPRLPRPRPRPLINPRP	-0.533
RRIRDRPPRLPRPRPRPSHMPRP	-0.0936
RRIRNRPPRLPRPRPRPDKYPRP	-0.665
RRIRPRPPRLPRPRPRPSWYPRP	-0.698
RRIRTRPPRLPRPRPRPKPIPRP	0.0226

Sequence	shrunken log2 fold change
RRIRLRPPRLPRPRPRPDVMPRP	-0.269
RRIRERPPRLPRPRPRPNKCPRP	-0.522
RRIRMRPPRLPRPRPRPNQAPRP	-0.00973
RRIRARPPRLPRPRPRPSIHPRP	-0.233
RRIRKRPPRLPRPRPRPMTHPRP	-0.00695
RRIRVRPPRLPRPRPRPPRGPRP	0.665
RRIRARPPRLPRPRPRPQSMPRP	-0.0226
RRIRKRPPRLPRPRPRPWNGPRP	-0.0782
RRIRIRPPRLPRPRPRPFFLPRP	-0.406
RRIRNRPPRLPRPRPRPVSGPRP	0.172
RRIRLRPPRLPRPRPRPVTVPRP	-0.128
RRIRGRPPRLPRPRPRPFSLPRP	-0.693
RRIRCRPPRLPRPRPRPPRVPRP	0.935
RRIRNRPPRLPRPRPRPDDIPRP	0.0399
RRIRQRPPRLPRPRPRPVMQPRP	0.0499
RRIRRRPPRLPRPRPRPKFNPRP	0.00967
RRIRMRPPRLPRPRPRPTREPRP	0.947
RRIRNRPPRLPRPRPRPGHRPRP	0.00909
RRIRTRPPRLPRPRPRPLPWPRP	0.147
RRIRMRPPRLPRPRPRPGQHPRP	0.406
RRIRERPPRLPRPRPRPNEHPRP	-0.445
RRIRARPPRLPRPRPRPLNDPRP	0.0895
RRIRQRPPRLPRPRPRPVNMPRP	0.0206
RRIRNRPPRLPRPRPRPDFMPRP	-0.138
RRIRERPPRLPRPRPRPVCWPRP	0.337

Sequence	shrunken log2 fold change
RRIRDRPPRLPRPRPRPVFHPRP	-0.707
RRIRDRPPRLPRPRPRPLQQPRP	0.104
RRIRHRPPRLPRPRPRPFKAPRP	-0.0378
RRIRRRPPRLPRPRPRPPIEPRP	0.339
RRIRVRPPRLPRPRPRPTPHPRP	0.313
RRIRTRPPRLPRPRPRPRKQPRP	0.0743
RRIRPRPPRLPRPRPRPDFSPRP	0.0658
RRIRDRPPRLPRPRPRPQRWPRP	0.287
RRIRGRPPRLPRPRPRPACTPRP	1.17
RRIRTRPPRLPRPRPRPLPSPRP	-0.0373
RRIRRRPPRLPRPRPRPKTCPRP	0.265
RRIRIRPPRLPRPRPRPMLTPRP	-0.00363
RRIRVRPPRLPRPRPRPPQVPRP	0.377
RRIRHRPPRLPRPRPRPNAFPRP	-0.14
RRIRGRPPRLPRPRPRPSILPRP	1.03
RRIRQRPPRLPRPRPRPCHFPRP	0.173
RRIRQRPPRLPRPRPRPEQWPRP	0.222
RRIRYRPPRLPRPRPRPHKTPRP	-0.0572
RRIRARPPRLPRPRPRPMRQPRP	0.829
RRIRRRPPRLPRPRPRPMGQPRP	0.267
RRIRVRPPRLPRPRPRPHTLPRP	-0.571
RRIRSRPPRLPRPRPRPLWMPRP	-0.0686
RRIRGRPPRLPRPRPRPCWHPRP	0.357
RRIRPRPPRLPRPRPRPDQYPRP	-0.114
RRIRIRPPRLPRPRPRPQRMPRP	-0.387

Sequence	shrunken log2 fold change
RRIRWRPPRLPRPRPRPLKKPRP	0.0518
RRIRCRPPRLPRPRPRPMNLPRP	-0.538
RRIRVRPPRLPRPRPRPIFHPRP	-0.0258
RRIRRRPPRLPRPRPRPWHRPRP	-0.113
RRIRSRPPRLPRPRPRPPCCPRP	-0.107
RRIRPRPPRLPRPRPRPENGPRP	-0.0225
RRIRSRPPRLPRPRPRPDITPRP	0.0856
RRIRMRPPRLPRPRPRPYWYPRP	-0.0684
RRIRRRPPRLPRPRPRPGRKPRP	0.332
RRIRYRPPRLPRPRPRPPVQPRP	-0.0548
RRIRMRPPRLPRPRPRPCLAPRP	0.215
RRIRGRPPRLPRPRPRPMKYPRP	0.0733
RRIRKRPPRLPRPRPRPFRIPRP	-0.0356
RRIRLRPPRLPRPRPRPSVSPRP	-0.0466
RRIRVRPPRLPRPRPRPFIQPRP	-0.449
RRIRPRPPRLPRPRPRPQENPRP	-0.125
RRIRRRPPRLPRPRPRPRQKPRP	0.857
RRIRWRPPRLPRPRPRPQCYPRP	-0.252
RRIRDRPPRLPRPRPRPESMPRP	0.0145
RRIRCRPPRLPRPRPRPVWFPRP	0.029
RRIRHRPPRLPRPRPRPMPDPRP	-0.276
RRIRARPPRLPRPRPRPHCCPRP	0.134
RRIRKRPPRLPRPRPRPPQCPRP	0.26
RRIRWRPPRLPRPRPRPGWQPRP	0.0857
RRIRQRPPRLPRPRPRPDCWPRP	-0.0539

Sequence	shrunken log2 fold change
RRIRVRPPRLPRPRPRPPDQPRP	0.124
RRIRYRPPRLPRPRPRPAVFPRP	-0.0965
RRIRTRPPRLPRPRPRPAEAPRP	0.148
RRIRCRPPRLPRPRPRPKAKPRP	0.0298
RRIRYRPPRLPRPRPRPNHKPRP	-1.3
RRIRYRPPRLPRPRPRPPCRPRP	-0.211
RRIRQRPPRLPRPRPRPRRVPRP	0.252
RRIRSRPPRLPRPRPRPAFMPRP	0.309
RRIRYRPPRLPRPRPRPGEDPRP	-0.00904
RRIRSRPPRLPRPRPRPSNNPRP	-0.66
RRIRMRPPRLPRPRPRPEMQPRP	2.83
RRIRARPPRLPRPRPRPYLQPRP	-0.276
RRIRSRPPRLPRPRPRPGTHPRP	-0.146
RRIRARPPRLPRPRPRPLHLPRP	0.0337
RRIRTRPPRLPRPRPRPHVRPRP	-0.00804
RRIRFRPPRLPRPRPRPQETPRP	-0.0613
RRIRERPPRLPRPRPRPKHAPRP	-0.0907
RRIRMRPPRLPRPRPRPWMAPRP	-0.0347
RRIRVRPPRLPRPRPRPYDFPRP	-0.00884
RRIRKRPPRLPRPRPRPKAMPRP	-0.0457
RRIRQRPPRLPRPRPRPMPSPRP	-0.162
RRIRPRPPRLPRPRPRPWWLPRP	-0.0379
RRIRARPPRLPRPRPRPMPQPRP	0.378
RRIRWRPPRLPRPRPRPSGNPRP	-0.0162
RRIRTRPPRLPRPRPRPKCNPRP	-0.221
